Measurements as given in patent US20260274944A1 (VECT HORUS, published 2026).
Residue numbers refer to the chain shown, from its start.

B1: VHH 1 (VHH)
VHH: QVQLVQSGGGLVQPGGSLRLSCAVSGSIFSSATMGWYRQAPGKQRELAARISSGGSTNYLDSVKGRFTISRDNAKNTVYLQMNSLKLEDTAVYYCRLQANFGLVDYWGKGTQVTVSS
notes: also called sdAb VHH 1
B2: VHH 1-Fc (Fc fusion)
chain: B1 VHH
notes: VHH with no tag fused to a human IgG1 Fc; also called VHHRAGE-Fc fusion; VHH-RAGE-Fc; not shown: human IgG1-Fc fragment encoded by the pINFUSE-IgG1-Fc2 vector (InvivoGen)
B3: VHH 4-siSOD1m (other)
VHH: EVQLVESGGGLVQAGGSLRLSCVASGRTFSNYAMAWFRQAPGEEREFVARISWRGGRTSYADSVKGRFTISRDNAKNTVYLQMISLKPEDTAVYYCASEGGAFGGVYSATGSYDYWGQGTQVTVSSAAAEQKLISEEDLNGAAHHHHHHGS
modifications: siRNA siSOD1m linked through an azido linker put by bacterial transglutaminase on the glutamine residue of the myc tag, then copper-free click chemistry
notes: VHH-siRNA conjugate
B4: VHH 2-siSOD1m (other)
VHH: QVQLVQSGGGLVQAGGSLRLSCAASGSVSSIYAMGWYRQAPGKQREWVTTITGRGITDYAASVKGRFTISRDTAKNAVYLQMNNLKPEDTARYYCKIDRRGYAPYWGQGTQVTVSSAAAEQKLISEEDLNGAAHHHHHHGS
modifications: siRNA siSOD1m linked through an azido linker put by bacterial transglutaminase on the glutamine residue of the myc tag, then copper-free click chemistry
notes: VHH-siRNA conjugate
B5: VHH 3-Fc (Fc fusion)
chain: QVQLVQSGGGLVQAGGSLRLSCVASGRTFSNYAMAWFRQAPGEEREFVARISWSGGRTSYADSVKGRFTISRDNAKNTVYLQMISLKPEDTAVYYCATEAGAFGGVYSSTGSYDYWGQGTQVTVSS
notes: as for B2
B6: VHH 4 (VHH)
VHH: B5 chain with Q1E, Q6E, S54R, T98S, A100G, S109A
notes: also called sdAb VHH 4
B7: VHH 3 (VHH)
VHH: B5 chain
notes: also called sdAb VHH 3
B8: VHH 5 (VHH)
VHH: EVQLVESGGGLVQPGGSLRLSCAASGTIFSLNPMGWYRQAPGKQLELVALISDSGTANYADFVRGRFTISRDTTKKTLYLQMNSLEPEDTAVYYCRSTFAAGNFYWGQGTQVTVSS
notes: also called sdAb VHH 5
B9: VHH 2 (VHH)
VHH: QVQLVQSGGGLVQAGGSLRLSCAASGSVSSIYAMGWYRQAPGKQREWVTTITGRGITDYAASVKGRFTISRDTAKNAVYLQMNNLKPEDTARYYCKIDRRGYAPYWGQGTQVTVSS
notes: also called sdAb VHH 2
B10: VHH 2-Fc (Fc fusion)
chain: B9 VHH
notes: as for B2

What was measured:
[1] = target: T1, human RAGE (hRAGE) fused to EGFP, stably expressed on CHO cells (human, UniProt Q15109 23-404); experiment: flow cytometry on CHO-hRAGE-EGFP cells, 4 °C, anti-6His detection
T1 construct: whole, on cells; also called CHO-hRAGE-EGFP; human receptor; not shown: EGFP from the pEGFP-N1 vector (Clontech), fused at the C-terminal (intracellular) end

[2] = target: T2, mouse RAGE (mRAGE) fused to EGFP, expressed on CHO cells (mouse, UniProt Q62151 23-402); experiment: flow cytometry on CHO-mRAGE-EGFP cells, 4 °C, anti-6His detection
T2 construct: whole, on cells; also called CHO-mRAGE-EGFP; murine RAGE; not shown: EGFP from the pEGFP-N1 vector (Clontech), fused at the C-terminal (intracellular) end

[3] = target: T3, HA-mRAGE (mouse, UniProt Q62151 23-402); experiment: immunocytochemistry, 250 nM on transfected CHO cells, anti-human Fc detection
T3 construct: mature; Transiently expressed on CHO cells; also called full-length mRAGE with N-terminal HA tag; not shown: HA tag at the N-terminus; EGFP fused at the C-terminal end (pEGFP-N1)
From the text: To determine the binding domain of VHH-RAGE-Fc, inventors suppressed RAGE domains sequentially, expressed the resulting truncated constructs mRAGE-ΔV, mRAGE-ΔV-C1 (FIG. 9-A) and compared VHHRAGE-Fc binding on the full-length construct (mRAGE and HA-mRAGE) in transfected CHO cells. An HA tag was introduced in the N-ter of each receptor to validate appropriate presentation of the extracellular domain using anti-HA, non-permeabilizing immunocytochemistry. EGFP was fused at the C-terminal end to enable easy visualization of the truncated and full-length receptor by fluorescence microscopy. […] The synthetised DNA fragments were cloned into a pEGFP-N1 plasmid after restriction using XhoI EcoRI and ligation. CHO WT cells were transfected using jetPEI™ with the different plasmid constructs according to the manufacturer's instructions.
For immunocytochemistry, living transfected cells were incubated with 250 nM VHH-RAGE-hFc or anti-HA antibody for 1 hr at 37° C. Cells were then fixed using PBS-PFA 4%.

[4] = target: T1, human RAGE (hRAGE) fused to EGFP, …; experiment: immunocytochemistry, 50 nM on living CHO-hRAGE-EGFP cells, anti-hFc detection
Procedure: (§1) Immunocytochemistry experiments on CHO cell lines expressing the mouse or human RAGE fused to EGFP were performed to confirm the ability of fusion proteins to bind the RAGE. For these experiments, VHH-Fc fusion proteins were incubated at 50 nM on living cells, detected using an Alexa594-conjugated anti-hFc antibody after cells fixation with PBS-PFA 4% and permeabilization of the cell membrane with PBS-0.1% Triton X100 and photographed with a confocal microscope.

[5] = target: T2, mouse RAGE (mRAGE) fused to EGFP, …; experiment: immunocytochemistry, 50 nM on living CHO-mRAGE-EGFP cells, anti-hFc detection
Procedure: as §1

[6] = target: T4, RAGE in mice lungs (endogenous mouse RAGE at the alveolar epithelium) (mouse, UniProt Q62151 23-402); experiment: double immunofluorescence on lung sections of mice injected at 35 nmol/kg, 48 hours post injection
T4 construct: whole, on cells; also called RAGE in the lung
Procedure: FIG. 10. Cellular binding/co-localization of VHH-Fc on RAGE in mice lungs. Immunocytochemistry was performed on the lungs of mice injected with VHH ctrl-Fc, VHH 1-Fc and VHH 5-Fc into tail vein at 35 nmol/kg. The mice were perfused with saline 48 hours post injection and the lungs were incubated in PFA 4% overnight. Lungs were extensively washed in PBS 1× and incubated 2 days in sucrose 30%. Double-immunofluorescent staining of lung tissue with anti-RAGE (Alexa Fluor 488, green) and with VHH-Fc (Alexa Fluor 594, red) antibodies were performed on lung sections. Cell nuclei were labeled with Hoechst #33342 at 0.5 μg/ml (blue). Co-labeling appears in yellow/orange in the merged pictures (right panel). Representative photographs were taken with a confocal microscope with 20× and 63× magnification.
To confirm the ability of fusion proteins to bind RAGE in vivo, immunocytochemistry experiments were performed on lungs of mice injected into the tail vein at 35 nmol/kg with VHH ctrl-Fc, VHH 1-Fc and VHH 5-Fc. Mice were perfused with saline 48 hours post injection and lungs were incubated in PFA 4% overnight. Lungs were extensively washed in PBS 1× and incubated 2 days in sucrose 30% before being snap frozen. The fixed lung was embedded in OCT and cut in 14 μm thick sections. […] Cell nuclei were labeled with Hoechst #33342. […]

[7] = target: T2, mouse RAGE (mRAGE) fused to EGFP, …; experiment: apparent Kd (Kd app), flow cytometry on CHO-mRAGE-EGFP cells
Procedure: The binding properties of VHHs with affinity for RAGE were tested using flow cytometry, and apparent affinities (K_{d app}) were determined. All experiments were performed in 96 well plates using 2×10⁵ cells/well, at 4° C. with shaking. CHO cell lines expressing RAGE fused to EGFP or CHO WT cells were saturated with PBS/BSA 2% solution during 30 min to avoid nonspecific binding, followed by incubation with purified VHHs at concentrations ranging from 50 μM to 0.5 nM for 1 hr. After one wash in PBS/BSA 2%, cells were incubated for 1 hr with an anti-6His tag antibody (mouse), washed twice with PBS/BSA 2%, and incubated for 1 hr with an Alexa647-conjugated anti-mouse secondary antibody. After two last washes in PBS/BSA 2%, cells were fixed by incubation for 15 min with PBS/PFA 2%, washed once with PBS and finally resuspended in PBS. Fluorescence levels were assessed using an Attune N×T flow cytometer (Thermo Fisher Scientific).
The binding properties of VHH-siRNA conjugates with affinity for RAGE were tested using flow cytometry, and apparent affinities (K_{d app}) were determined. The same protocol as the one described in example IV was used.
All VHH-siRNAs bound the mRAGE and induced a concentration-dependent shift of the signal (FIG. 4-A), confirming that the VHH conjugated to both the siTTRm and the siSOD1m retained the binding to the receptor of interest. The VHH-siRNA K_{d app} were calculated using GraphPad Prism software.

[8] = target: T2, mouse RAGE (mRAGE) fused to EGFP, …; experiment: flow cytometry competition on CHO-mRAGE-EGFP cells; competitor against tracer VHH 1-Fc
Procedure: FIG. 8. Competition assay between VHHs and VHH 1-Fc. (A) Principle of the competition test. In a first step, CHO-mRAGE-EGFP cells were incubated 1 hr at 4° C. with the competitor in dilution series. Second, the tracer at EC80-90 was added and incubated for 1 hr at 4° C. […] Measurements were performed using flow cytometry. (B) CHO-mRAGE-EGFP cells were incubated with the competitors (VHHs). Tracer (VHH 1-Fc) at EC80 was then added and detected with Alexa647-conjugated anti-hFc antibody (1/400).

[9] = target: T1, human RAGE (hRAGE) fused to EGFP, …; experiment: apparent Kd (Kd app), flow cytometry on CHO-hRAGE-EGFP cells
Procedure: FIG. 3. Apparent Kd determination of VHHs on hRAGE- and mRAGE-expressing CHO cell lines. (A) CHO-hRAGE-EGFP and CHO-mRAGE-EGFP cells were incubated 1 hr at 4° C. with increasing concentrations of VHHs, detected with a mouse anti-6His (1/1000) and an Alexa647-conjugated anti-mouse secondary antibody (1/400). Measurements were performed using flow cytometry. The ratio of fluorescence intensity for each point was normalized with the corresponding EGFP signal (receptor expression) and gave rise to the arbitrary units. Data are presented as mean±SEM of at least 3 independent experiments. (B) Characteristics of selected VHHs: Molecular Weight (Da); Apparent Kd on human RAGE (nM); Apparent Kd on mouse RAGE (nM). Data are presented as mean±SEM of at least 3 independent experiments.
The binding properties of VHHs with affinity for RAGE were tested using flow cytometry, and apparent affinities (K_{d app}) were determined. […] Fluorescence levels were assessed using an Attune N×T flow cytometer (Thermo Fisher Scientific).
Three VHHs (VHH 1, 2 and 5) out of 5 bound both the human and the mouse RAGE and induced a concentration-dependent shift of the signal (FIG. 3-A). […] Moreover, no labelling of the CHO WT control cells was detected with all the tested VHHs (not shown). The VHH K_{d app} were calculated using GraphPad Prism software.

T3 sequence (Q62151 23-402): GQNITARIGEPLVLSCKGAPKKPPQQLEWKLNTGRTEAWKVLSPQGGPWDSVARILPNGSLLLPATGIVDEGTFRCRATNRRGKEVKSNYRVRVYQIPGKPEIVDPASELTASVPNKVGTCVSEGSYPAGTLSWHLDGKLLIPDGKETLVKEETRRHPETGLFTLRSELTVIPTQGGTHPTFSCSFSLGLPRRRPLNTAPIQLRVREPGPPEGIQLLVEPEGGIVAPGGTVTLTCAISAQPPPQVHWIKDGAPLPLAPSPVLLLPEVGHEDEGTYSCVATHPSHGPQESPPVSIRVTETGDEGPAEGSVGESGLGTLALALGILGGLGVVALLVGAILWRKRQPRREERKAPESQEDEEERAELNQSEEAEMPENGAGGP
T2 sequence (Q62151 23-402): as above
T1 sequence (Q15109 23-404): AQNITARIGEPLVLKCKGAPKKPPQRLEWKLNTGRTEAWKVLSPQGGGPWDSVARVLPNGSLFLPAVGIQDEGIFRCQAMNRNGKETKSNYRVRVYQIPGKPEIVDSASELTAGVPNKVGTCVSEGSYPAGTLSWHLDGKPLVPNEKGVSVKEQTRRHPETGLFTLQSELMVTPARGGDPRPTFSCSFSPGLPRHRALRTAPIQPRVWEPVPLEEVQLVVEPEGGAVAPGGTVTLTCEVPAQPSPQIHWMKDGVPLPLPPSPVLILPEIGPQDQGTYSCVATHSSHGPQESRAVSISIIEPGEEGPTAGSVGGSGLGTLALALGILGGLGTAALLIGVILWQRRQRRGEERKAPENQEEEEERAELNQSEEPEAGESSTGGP
T4 sequence (Q62151 23-402): as the sequence (Q62151 23-402) above

Binder	binding result [3]	binding result [5]	Kd [7] [nM]	further results
B1	–	–	–	binding result [1]: binds; binding result [2]: binds
B2	binds	binds	–	binding result [4]: binds; binding result [6]: binds
B3	–	–	6.8	–
B4	–	–	238	–
B5	binds	binds	–	–
B6	–	–	32	–
B7	–	–	–	binding result [8]: binds
B8	–	–	1490	Kd [9]: 204 nM
B9	–	–	–	Kd [9]: 350 nM; binding result [2]: binds
B10	binds	binds	–	–
